The text below walks through data of publication PMC4994250.

This assay concerns the target human CASKIN2 SAM1-SAM2 tandem (483-634), G537D/K540E double mutant (human) (UniProt Q8WXE0). In words: AUC; sedimentation velocity, 300 mM NaCl, 20 mM sodium phosphate pH 7.8, 20 °C, 50,000 rpm; 10 and 34 μM loading, Kd fitted from the 34 μM experiment; monomer-dimer equilibrium (dimer to monomers).

For the substance “human CASKIN2 SAM1-SAM2 tandem (483-634), G537D/K540E double mutant (from UniProt Q8WXE0 483-634) (domain or fragment)”, the Kd is 99.8 µM.
